{"source": "patent US20230296605A1", "binders": {"B1": {"name": "anti-PRRSV antibody 477 (antibody, V domains shown)", "VH": "QVHVKQSGAELAKPGASVKMSCKASGYTFTNYWMHWVKQRPGQGLEWIGYINPSTGYTEYNQKFKDKATLTADKSSSTASMQLSSLTSEDSAVYYCGRSTAYGKYGEAWFAYWGQGTLVTVSA", "VL": "DIVMTQSPASLAVSLGQRATISCRTSESVDSFGNSFMHWYQQKPGQPPKLLIYLASNLESGVPARFSGSGSRTDFTLTIDPVEADDAATYYCQQNNEDPYTFGGGTKLEIKR"}}, "key": {"[1]": {"biological_target": "PRRSV viral lysate (Porcine Reproductive and Respiratory Syndrome Virus)", "test": "[…], antibody immobilized; […]"}, "[2]": {"biological_target": "PRRSV viral lysate (Porcine Reproductive and Respiratory Syndrome Virus)", "test": "ELISA, coated lysate, 1 ug antibody"}, "[3]": {"biological_target": "PRRSV viral lysate (Porcine Reproductive and Respiratory Syndrome Virus)", "test": "ELISA Test 2, coated lysate, antibody 1:4000; PBS control 0.118/0.121"}, "[4]": {"biological_target": "lysate of porcine coronavirus", "test": "ELISA Test 2, coated lysate, antibody 1:4000; PBS control 0.140/0.145"}, "[5]": {"biological_target": "lysate of porcine circovirus type 2", "test": "ELISA Test 2, coated lysate, antibody 1:4000; PBS control 0.162/0.153"}, "[6]": {"biological_target": "PRRSV viral lysate (Porcine Reproductive and Respiratory Syndrome Virus)", "test": "ELISA Test 1, coated lysate, antibody 1:4000, Group 1; PBS control 0.073/0.072"}, "[7]": {"biological_target": "lysate of porcine pseudorabies virus", "test": "ELISA Test 1, coated lysate, antibody 1:4000, Group 1; PBS control 0.080/0.089"}, "[8]": {"biological_target": "lysate of porcine pseudorabies virus", "test": "ELISA Test 1, coated lysate, antibody 1:4000, Group 2; PBS control 0.054/0.052"}, "[9]": {"biological_target": "PRRSV viral lysate (Porcine Reproductive and Respiratory Syndrome Virus)", "test": "ELISA Test 1, coated lysate, antibody 1:4000, Group 2; PBS control 0.058/0.060"}}}
{"binder": "B1", "values": [{"measurement": "electric signal, fold over the negative control", "setting": "[1]", "result": 3, "unit": "times"}, {"measurement": "lowest concentration of PRRSV recognized", "setting": "[2]", "result": "< 0.78", "unit": "ng"}, {"measurement": "OD450", "setting": "[3]", "result": 0.66, "unit": "OD450"}, {"measurement": "OD450", "setting": "[4]", "result": 0.375, "unit": "OD450"}, {"measurement": "OD450", "setting": "[5]", "result": 0.303, "unit": "OD450"}, {"measurement": "OD450", "setting": "[6]", "result": 0.151, "unit": "OD450"}, {"measurement": "OD450", "setting": "[7]", "result": 0.095, "unit": "OD450"}, {"measurement": "OD450", "setting": "[8]", "result": 0.08, "unit": "OD450"}, {"measurement": "OD450", "setting": "[9]", "result": 0.129, "unit": "OD450"}]}
